Results from publication PMC9129000, “RADA-dependent branch migration has a predominant role in plant mitochondria and its defect leads to mtDNA instability and cell cycle arrest”.

Biological target: T1, RADA K201A (Arabidopsis thaliana, UniProt F4K8X8 49-627, K201A)
T1 sequence: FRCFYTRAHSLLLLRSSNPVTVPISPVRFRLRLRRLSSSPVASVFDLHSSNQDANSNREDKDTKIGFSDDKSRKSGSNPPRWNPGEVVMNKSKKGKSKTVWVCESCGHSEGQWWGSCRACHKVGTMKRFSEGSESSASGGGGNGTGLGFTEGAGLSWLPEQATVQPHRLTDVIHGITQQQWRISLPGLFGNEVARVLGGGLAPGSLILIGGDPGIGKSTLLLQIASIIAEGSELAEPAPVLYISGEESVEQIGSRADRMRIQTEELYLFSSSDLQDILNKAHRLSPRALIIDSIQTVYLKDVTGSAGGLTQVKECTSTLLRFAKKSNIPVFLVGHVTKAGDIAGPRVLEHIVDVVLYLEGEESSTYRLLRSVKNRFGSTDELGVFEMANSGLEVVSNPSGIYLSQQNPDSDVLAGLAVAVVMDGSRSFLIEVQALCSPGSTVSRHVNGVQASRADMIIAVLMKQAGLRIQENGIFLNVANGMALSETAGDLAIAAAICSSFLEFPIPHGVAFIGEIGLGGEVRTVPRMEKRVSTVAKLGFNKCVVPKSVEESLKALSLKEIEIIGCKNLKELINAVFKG
Test: EMSA; affinity comparable to WT; 20 mM Tris-HCl pH 7.5, 50 mM KCl, 5 mM MgCl2, 0.5 mM EDTA, 10% glycerol, 1 mM DTT, protease inhibitors; 20 C, 20 min; 8 or 4.5% PAGE in TBE at 4 C
Conditions: protein: recombinant; tags: N-terminal His (pET28a); chain copies: 6; label: 5'-32P; single strand

B1: EMSA ssDNA (ssDNA)
DNA: GACGCTGCCGAATTCTACCAGTGCCTTGCTAGGACATCTTTGCCCACCTGCAGGTTCACCC
- binding result: binds
